# B1: Panx2: N86Q-FLAG (protein)
# parent chain: MHHLLEQSADMATALLAGEKLRELILPGSQDDKAGALAALLLQLKLELPFDRVVTIGTVLVPILLVTLVFTKNFAEEPIYCYTPHNFTRDQALYARGYCWTELRDALPGVDASLWPSLFEHKFLPYALLAFAAIMYVPALGWEFLASTRLTSELNFLLQEIDNCYHRAAEGRAPKIEKQIQSKGPGITEREKREIIENAEKEKSPEQNLFEKYLERRGRSNFLAKLYLARHVLILLLSVVPISYLCTYYATQKQNEFTCALGASPDGPVGSAGPTVRVSCKLPSVQLQRIIAGVDIVLLCFMNLIILVNLIHLFIFRKSNFIFDKLNKVGIKTRRQWRRSQFCDINILAMFCNENRDHIKSLNRLDFITNESDLMYDNVVRQLLAALAQSNHDTTPTVRDSGIQTVDPSINPAEPDGSAEPPVVKRPRKKMKWIPTSNPLPQPFKEQLAIMRVENSKTEKPKPVRRKTATDTLIAPLLDAGARAAHHYKGSGGDSGPSSAPPAASEKKHTRHFSLDVHPYILGTKKAKTEAVPPALPASRSQEGGFLSQTEECGLGLAAAPTKDAPLPEKEIPYPTEPALPGLPSGGSFHVCSPPAAPAAASLSPGSLGKADPLTILSRNATHPLLHISTLYEAREEEEGGPCAPSDMGDLLSIPPPQQILIATFEEPRTVVSTVEF
# B2: Panx2: N86Q (protein)
# parent chain: B1 parent chain
# Columns and labels:
# [1] = confocal linescan, surface colocalisation, HEK293T co-expression; details: glycan lost; control: Panx2-FLAG
# [2] = cell-surface biotinylation, HEK293T; details: glycan lost; control: wild-type Panx2
# [3] = cell-surface biotinylation, NRK; details: glycan lost; control: wild-type Panx2
# [4] = cell-surface biotinylation, AD293; details: glycan lost; control: wild-type Panx2
Protein,localisation_or_trafficking [1],"localisation_or_trafficking, other: surface fraction of total protein [2]",localisation_or_trafficking [3],localisation_or_trafficking [4]
B1,decreases,,,
B2,,"decreases, ~1 vs approximately 4",decreases,decreases

# Source: publication PMC6073767
